Reference: the supplement of paper PMC10567573
± gives the standard deviation.

Experiment: protein stability index of a GFP-peptide fusion (GPS, HEK-293T) (PSI 1-6); higher = more stable
Settings: c terminus: a fixed tail appended
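Note: 24-mer peptide tiles fused after GFP, lentivirally expressed, FACS-sorted into six equal bins by GFP/DsRed ratio, decoded by Illumina sequencing, PSI is the read-weighted mean bin number.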

Sequence | protein stability index (treatment: DMSO) | protein stability index (treatment: MLN4924 1 uM, 8 h)
GLMVTCGTDRIVKIWDMTPVVGCS [WDFY1] | 2.29 ± 0.21 | 2.18 ± 0.22
QPLEVKNNSNLQRMGSSESTDSGF [CDC25A] | 5.28 ± 0.23 | 5.06 ± 0.49
LFDTKHDVYSFAIVIWGVLTQKKP [RIPK4] | 2.49 ± 0.56 | 2.72 ± 0.17
RRDGKWQNVHFHRSGSPTVPIKPP [CAMK2D] | 3.32 ± 0.27 | 3.54 ± 0.4
GGRFRCPSCRHEVVLDRHGVYGLQ [TRIM55] | 2.31 ± 0.23 | 2.36 ± 0.6
PLPVSADDTPEVLNRALSNLSSRW [CDS2] | 3.82 ± 0.17 | 3.83 ± 0.19
RLCLVCGDIASGYHYGVASCEACK [ESRRG] | 4.15 ± 0.12 | 4.21 ± 0.18
KALWEDKTSLWEEENALWEEERAF [CCDC70] | 3.79 ± 0.18 | 3.87 ± 0.14
GEPQQDCCVKTELLGEETPMAADE [EHMT1] | 5.55 ± 0.25 | 5.53 ± 0.14
VMAWVKYSIQERRPQLPQVLQHVR [KLHL20] | 2.41 ± 0.37 | 2.04 ± 0.34
LAWRIVNDTYRTDLCLLYPPFMIA [CCNC] | 2.86 ± 0.49 | 3.34 ± 0.71
RGRYRQYNSEILEEAISVVMSGKM [LCOR] | 2.54 ± 0.23 | 2.71 ± 0.29
RAARDYKIQNHGHRVLQRLEQRRQ [FCHSD1] | 3.82 ± 0.079 | 4.07 ± 0.26
LDRERAAANEQLTRAILRERICSE [CHCHD3] | 4.14 ± 0.23 | 4.1 ± 0.42
LCKATSPADALQYLLQFARKPVEA [INTS4] | 2.05 ± 0.28 | 2.12 ± 0.29
MTTSHQPQDRYKAVWLIFFMLGLG [SLC29A1] | 2.52 ± 0.61 | 2.41 ± 0.43
LRAFVNSQIQGHKEMSKVWNDLRP [SNX8] | 2.39 ± 0.21 | 2.62 ± 0.27
MIVDVTPYMNPSPFTVSPNTHVSQ [CLCN6] | 2.47 ± 0.17 | 2.8 ± 0.31
HLSRQKIDPLLYMTEWFMCAFSRT [TBC1D10A] | 2.8 ± 0.31 | 2.67 ± 0.55
DDKDALVFVLIDEVESLTAARNAC [TRIP13] | 2.21 ± 0.32 | 2.38 ± 0.34
REPPQAVSIKEAAGSSNLPAPERT [VENTX] | 5.26 ± 0.3 | 5.2 ± 0.54
NFLTQRENTIAGANHTHTFYGHSH [C10orf62] | 3.1 ± 0.26 | 3.09 ± 0.2
KDGEYCWRWTGFNFGFDLLVTYTN [GMCL1] | 3.44 ± 0.41 | 2.89 ± 0.46

Sequence | protein stability index (treatment: DMSO) | protein stability index (treatment: MLN4924 1 uM, 8 h)
KRASAPTFDNDYSLSELLSQLDSG [RIPK4] | 3.75 ± 0.37 | 3.56 ± 0.15
QVQSLITNVESQLAEIRCDLERQN [KRT34] | 3.43 ± 0.21 | 3.66 ± 0.33
EDKIFPVPEEPPVKKLMRTSTPPP [ZBED1] | 4.8 ± 0.27 | 4.61 ± 0.34
EPFGKERDAAIKKLATEAGVEVIV [CRY1] | 3.59 ± 0.22 | 3.48 ± 0.28
VACFLTRGDLWISWEEGMKVFEEL [CRY1] | 2.67 ± 0.71 | 2.33 ± 0.39
FGVTYLEDYSAEYIIQQGGWGTVF [BCL2L13] | 2.48 ± 0.38 | 2.33 ± 0.26
FLCLQYRLRGKLRAEIENLHRTFD [MOG] | 2.41 ± 0.57 | 2.18 ± 0.39
TFVFLASLLVLIEPVAAGSGIPEV [CLCN6] | 2.91 ± 0.58 | 2.71 ± 0.6
LSSAEENEPSQAETAVEGDPSGVS [C18orf25] | 5.47 ± 0.24 | 5.39 ± 0.47
RDVALQIHFTLIQAFCCENDINIL [GADD45A] | 2.92 ± 0.52 | 2.94 ± 0.59
QIEYEYKLAQALHEMREQHDAQVR [LMNB1] | 3.83 ± 0.38 | 3.83 ± 0.34
AAWLTLWVFGTSFLPFLLCAVLLS [FADS1] | 2.97 ± 0.53 | 3.15 ± 0.69
EKMEEEEQTCDPDSSLHWSSSYSP [ZNF396] | 5.3 ± 0.32 | 5.56 ± 0.065
WPSAKSAGWTLATLGEQGLPHQSH [SCNN1D] | 3.36 ± 0.43 | 3.17 ± 0.4
NPNFEVAESDYSNNIMKCRSRYDG [LOXL2] | 4.42 ± 0.24 | 4.42 ± 0.33
DDCDDDDDDAQILPSPVQACSEDS [DRICH1] | 5.48 ± 0.46 | 5.62 ± 0.24
SQVSYFTYIPENNARGASIFSVTA [PCDHGA10] | 2.29 ± 0.56 | 2.39 ± 0.54
PSSFPSSSSSSSSSCYPLIPSTPE [MAGEA10] | 4.32 ± 0.36 | 4.45 ± 0.13
PASFPTWGCDLGVVTRVVTGVYPR [BRF1] | 2.37 ± 0.16 | 2.39 ± 0.3
EEDIQGPTKADTEKWAEGGGHSRE [CHGB] | 5.52 ± 0.17 | 5.38 ± 0.28
YIGTHEYPHFSHRPSTLQAASTPQ [OAS1] | 2.61 ± 0.56 | 3.16 ± 0.48
GFSCDGTANTFRVMFKEPIEILPN [BTBD1] | 2.6 ± 0.22 | 2.73 ± 0.31
RRKQRYWPFSMDCTGTEAHISSCK [LOXL2] | 3.17 ± 0.49 | 3.52 ± 0.57

Sequence | protein stability index (treatment: DMSO) | protein stability index (treatment: MLN4924 1 uM, 8 h)
ENYNNLANAVISVSGINHDVTSGD [CPN1] | 4.28 ± 0.2 | 4.4 ± 0.14
SVPDVPKSMAWCENSICVGFKRDY [VPS39] | 2.91 ± 0.16 | 2.94 ± 0.25
DMRDPTYRPLKQELQGLDYCKPTR [SPSB1] | 3.76 ± 0.59 | 4.04 ± 0.55
LNMEEPPVEEPEPKPDRLLVLKVL [SLC19A2] | 3.5 ± 0.56 | 3.8 ± 0.25
PSSLSSSEGSSSSSSSSSSSSSSA [NFE2L1] | 5.51 ± 0.22 | 5.47 ± 0.12
FQEYDTDCEVFRQRFRQFQYREAA [ZNF449] | 2.77 ± 0.27 | 3.18 ± 0.23
NRGINITIYGKTFRVVDCDQFTQV [EFHC1] | 2.24 ± 0.53 | 2.72 ± 0.51
QVKFGQQNPRQVAQSEAEKKLKKD [ZC3H15] | 5.37 ± 0.25 | 5.37 ± 0.076
GRRQRKSEKRRDPPNGPNLPMATV [WASL] | 4.7 ± 0.37 | 4.47 ± 0.13
WDLRFRIIHETAVGMNFLHCMAPP [RIPK4] | 2.89 ± 0.73 | 2.82 ± 0.83
IDKGDESWVTDMCKVGASSDPCGQ [PNLIPRP1] | 4.52 ± 0.48 | 4.66 ± 0.36
RLPTDSHFPYDLHLRSQSLTMQDE [NEUROD6] | 4.32 ± 0.14 | 4.34 ± 0.16
VETELQRRNEETPEEGQQPWLCGE [GDAP1] | 5.38 ± 0.1 | 5.5 ± 0.15
EPKNYGSYSTQASAAAATAELLKK [SCAMP3] | 4.84 ± 0.18 | 4.83 ± 0.16
LRKIIDFIYTAKLSLNMDNLQDTL [KLHL13] | 2.79 ± 0.63 | 2.44 ± 0.78
GNCKYKVDCACLKENPECPVLKRS [KMT2E] | 3.41 ± 0.5 | 4.05 ± 0.74
LPRRPRKGSSELGFPRVAPEDEVI [RNF208] | 4.37 ± 0.23 | 4.33 ± 0.15
PSEHVQGKSPVNMVTVAMVAGQCE [ZNF649] | 4.14 ± 0.34 | 4.26 ± 0.14
DEVPGSQGSQASQAPPVPGPPPGA [NR2F2] | 5.45 ± 0.23 | 5.604 ± 0.036
SWVVRVQAAKLLGSMEQVSSHFLE [INTS4] | 2.47 ± 0.45 | 2.53 ± 0.43
LRVWDMFFCEGVKIIFRVGLVLLK [TBC1D10A] | 2.6 ± 0.38 | 2.37 ± 0.29
EFGYNAETQKLLCKNGETLLGAVN [ARFIP2] | 3.31 ± 0.042 | 3.29 ± 0.38
AVETEGSGSRHPPWARGCGMFTFL [SLC2A12] | 2.11 ± 0.16 | 2.13 ± 0.28

Sequence | protein stability index (treatment: DMSO) | protein stability index (treatment: MLN4924 1 uM, 8 h)
KKMSCQQFIANLDQLNDGQDFAKD [PSD2] | 4.41 ± 0.22 | 4.4 ± 0.2
RVQGGCYRFDSSSCSSEDNLSLVC [DRICH1] | 2.58 ± 0.43 | 2.62 ± 0.32
KEAVLAMEKKSKPKNSVWKRLKSP [RIT1] | 4.23 ± 0.21 | 4.19 ± 0.27
GENAGSLTHIEAQNKIRACGERLS [PDLIM7] | 4.57 ± 0.26 | 4.62 ± 0.14
YLMKTKQFRLKEAFDYIKQRRSMV [DUSP5] | 2.19 ± 0.38 | 2.11 ± 0.33
LVSWLPRLNAYRGYCSNQLAAKAL [NET1] | 2.5 ± 1 | 2.1 ± 0.2
VFCREGPTHQAHTVGFLDEAIQPY [TRIM15] | 2.85 ± 0.31 | 2.83 ± 0.24
EQEPIGTDLDAVRTPEPLEEFPKR [MYBL2] | 5.57 ± 0.2 | 5.18 ± 0.46
RQDADAWTLYKILDSCKQLTLAQG [SMG5] | 2.29 ± 0.26 | 2.32 ± 0.083
QVADINDNPPTFSQVSYFTYIPEN [PCDHGA10] | 2.98 ± 0.32 | 3.09 ± 0.3
SWGWDLGRSRLYHDGKNQPGVAYP [SPSB4] | 2.72 ± 0.29 | 2.56 ± 0.26
LTHLSLSRRASESSLSSESSESSD [CDC25B] | 5.38 ± 0.24 | 5.4 ± 0.12
QPPLSATVTLTVAVADSIPQVLAD [PCDHGA10] | 2.56 ± 0.24 | 2.7 ± 0.36
TEPMAWNETADLGLDIGAQGEPLG [CTNNB1] | 5.29 ± 0.23 | 5.25 ± 0.18
MYGVDLHHAKDSEGVEIMLGVCAS [EPB41L3] | 2.71 ± 0.3 | 2.77 ± 0.51
GVPNASVIMQVPERIVVAGNNEDV [MFF] | 4.68 ± 0.72 | 4.35 ± 0.31
GKGFRHSSSLAQHQRKHAGEKPFE [ZNF8] | 4.82 ± 0.21 | 4.69 ± 0.28
VSARSREGRGGRPGSTRPHRSACS [HAGHL] | 4.64 ± 0.2 | 4.69 ± 0.44
QNSRNKRAVQGPEETVTQDCLQLI [TNFSF13B] | 4.55 ± 0.057 | 4.68 ± 0.12
IQKAYDELRLQSEAFKKHSLDLLS [CCDC89] | 2.68 ± 0.31 | 2.91 ± 0.23
